Reference: US20140142040A1
Read-outs that look alike come from different tables or passages of the source.

Tests used:
[1] = biological target: T1, human activated protein C (human), P04070
T1 chain 1: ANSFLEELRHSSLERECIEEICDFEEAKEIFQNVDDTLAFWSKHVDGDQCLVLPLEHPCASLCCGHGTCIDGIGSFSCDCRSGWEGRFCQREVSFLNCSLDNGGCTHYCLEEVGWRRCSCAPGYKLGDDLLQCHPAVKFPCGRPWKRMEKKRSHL
T1 chain 2: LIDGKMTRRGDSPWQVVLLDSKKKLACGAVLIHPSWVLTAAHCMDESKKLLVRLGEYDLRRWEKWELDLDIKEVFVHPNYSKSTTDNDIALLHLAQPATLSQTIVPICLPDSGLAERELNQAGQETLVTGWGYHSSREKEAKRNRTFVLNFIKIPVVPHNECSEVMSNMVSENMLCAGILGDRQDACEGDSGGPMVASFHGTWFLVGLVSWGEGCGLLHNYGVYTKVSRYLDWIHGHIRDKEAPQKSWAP

[2] = biological target: T1, human activated protein C (human), …
[3] = biological target: T1, human activated protein C (human), …
[4] = biological target: human factor XIa (human), P03951
[5] = biological target: T2, human plasmin (human), P00747
T2 chain: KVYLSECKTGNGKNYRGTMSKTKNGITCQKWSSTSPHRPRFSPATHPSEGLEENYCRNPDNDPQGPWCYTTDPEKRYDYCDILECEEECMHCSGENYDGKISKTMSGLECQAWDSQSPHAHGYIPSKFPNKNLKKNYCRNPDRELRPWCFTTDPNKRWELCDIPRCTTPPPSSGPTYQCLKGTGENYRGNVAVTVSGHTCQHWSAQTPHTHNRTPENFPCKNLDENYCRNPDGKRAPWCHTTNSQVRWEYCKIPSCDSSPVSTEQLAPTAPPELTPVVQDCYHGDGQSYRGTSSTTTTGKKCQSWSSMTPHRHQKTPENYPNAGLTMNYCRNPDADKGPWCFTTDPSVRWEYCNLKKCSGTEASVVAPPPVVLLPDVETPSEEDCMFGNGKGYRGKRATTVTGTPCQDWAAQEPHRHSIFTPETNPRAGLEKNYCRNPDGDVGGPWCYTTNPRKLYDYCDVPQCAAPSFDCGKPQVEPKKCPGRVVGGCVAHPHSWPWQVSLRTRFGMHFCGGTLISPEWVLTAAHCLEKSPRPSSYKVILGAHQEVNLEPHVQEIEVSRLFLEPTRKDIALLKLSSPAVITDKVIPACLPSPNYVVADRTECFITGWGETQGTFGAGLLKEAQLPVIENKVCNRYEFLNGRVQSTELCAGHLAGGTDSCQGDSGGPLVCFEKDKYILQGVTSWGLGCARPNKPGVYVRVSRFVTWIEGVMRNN

[6] = biological target: T1, human activated protein C (human), …; test: cell-based or functional assay

B1: DrKIn-I (Daboia russelii Kunitz Inhibitor-I), A8Y7N4 25-90 (protein)
chain: QDRPKFCNLAPESGRCRGHLRRIYYNPDSNKCEVFFYGGCGGNDNNFETRKKCRQTCGAPRKGRPT
modifications: not checked
- kon [1]: 1.7e+07 M⁻¹ s⁻¹
- Kd [2]: 2.6 nM
- koff [2]: 0.034 s⁻¹
- kon [2]: 1.3e+07 M⁻¹ s⁻¹
- Ki [3]: 0.053 nM
- Ki [4]: 1.33 nM
- fold of Ki against the Ki for APC inhibition [4]: > 25 fold
- Ki [5]: 1.56 nM
- fold of Ki against the Ki for APC inhibition [5]: > 25 fold
- fold reduction of the IC50 by heparin [6]: 25 fold
